Reference: patent US7829301B2, “Screening assays for binding antagonists of the AMD-associated variant of factor H (H384)” (The University of Manchester, priority 2006, dated 2010)

T1: CRP (Homo sapiens, UniProt P02741)
T1 construct: purchased Calbiochem
T1 sequence (P02741 19-224): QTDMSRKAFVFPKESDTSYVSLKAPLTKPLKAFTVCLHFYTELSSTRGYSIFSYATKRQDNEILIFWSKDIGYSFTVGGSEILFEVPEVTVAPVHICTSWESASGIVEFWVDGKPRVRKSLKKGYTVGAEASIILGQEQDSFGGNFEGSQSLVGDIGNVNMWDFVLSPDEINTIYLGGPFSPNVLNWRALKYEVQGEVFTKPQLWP


How the values were obtained:
CRP = biological target: T1, CRP; test: Protein/protein binding assay with coated CRP
Procedure: FMOD was isolated from bovine articular cartilage (Heinghrd et al., (1986) J. Biol. Chem. 261, 13866-13872) and recombinant CRP was obtained from Calbiochem. Deglycosylated FMOD was prepared by treatment with N-glycosiadase F (Roche Applied Science) as previously described (Sjöberg et al. (2005) J. Biol. Chem. 280, 32301-32308).
CRP or FMOD was coated overnight at 4° C. onto microtiter plates (Maxisorp, Nunc) at a concentration of 10 μg/ml in 75 mM sodium carbonate buffer, pH 9.6. Wells treated only with coating buffer or 1% (w/v) BSA (Sigma) in coating buffer (for the assays involving FMOD) were used as negative controls. Between each step the wells were washed extensively with 50 mM Tris-HCl, 150 mM NaCl, 0.1% (v/v) Tween 20, pH 7.5. All wells were blocked with 1% (w/v) BSA (Sigma) in phosphate buffered saline (Invitrogen) for 1 hour at 37° C. […] The amount of bound protein was assessed using a goat polyclonal anti-FH antibody (Quidel, Cat # A312) followed by HRP-labeled anti-goat secondary antibodies (Dako) and the OPD development kit (Dako). Detection of biotinylated protein was performed using a StreptABComplex/HRP-kit from Dako, and in both cases the absorbance at 490 nm was measured to quantify protein binding.

Linearized pcDNA3-vector = test: Protein/DNA binding assay (agarose gel migration); conditions: 5 μg protein, 30 ng DNA, 30 minutes at 37° C.
Procedure: Plasmid pcDNA3 DNA (Invitrogen) was linearized using EcoR1 (Fermentas) in a buffer accompanying the enzyme.
Linearized pcDNA3-vector (30 ng) was incubated with 5 μg of FHCCP(H384), FHCCP6-8(Y384) or full length FH (positive control) in the binding buffer (as described above) in a total volume of 20 μl for 30 minutes at 37° C. The negative control contained no protein. DNA loading buffer (0.25% (w/v) bromophenol blue, 0.25% (w/v) xylene cyanol, 30% (v/v) glycerol in deionized water) was added (1 μl) and the samples were run on an agarose gel (0.8% (w/v), Cambrex) containing ethidium bromide (Sigma) and visualized by UV. Changes in DNA migration served as a means of evaluating the presence of DNA-protein complexes.

[1] = Microtitre plate assay: biotinylated proteins binding to immobilized heparin oligosaccharides of defined length
From the text: FIG. 10: Comparisons of the interactions of FHCCP6-8(H384) and the corresponding Y384 variant with heparin oligomers of different lengths. The binding of biotinylated-FHCCP6-8(H384) (black bars) or biotinylated-FHCCP6-8(Y384) (grey bars) to heparin oligosaccharides (dp4 to dp18) immobilized on microtitre plates plasma polymerized with allylamine. All values are plotted as mean absorbance values (n=8)±S.E.
(§1) The heparin/HS/DS-binding activities of the FHCCP6-8(H384) and FHCCP6-8(Y384) variants (using biotinylated-FHCCP6-8 constructs), and in some cases full-length Factor H (detected with an antibody), were compared using an assay where the glycosaminoglycans (GAGs) were immobilized on allylamine-coated EpranEx plates (Mahoney et al (2004) Anal. Biochem. 330, 123-129), kindly supplied by Plasso Technology Ltd., Sheffield, UK. Previously, we have shown that heparin/HS can bind non-covalently to surfaces plasma polymerized with allylamine in such a way that these GAGs can still associate with a wide-range of proteins (Mahoney et al. (2005) J. Biol. Chem. 280, 27044-27055; Mahoney et al. (2004) ibid).
In the case of the biotinylated FHCCP6-8(H384) and FHCCP6-8(Y384) constructs, bound material was detected by adding 200 μl/well of a 1:10,000 dilution of ExtrAvidin alkaline phosphatase (Sigma, Cat. No. E-2636) for 30 minutes. […]

[2] = Microtitre plate assay: biotinylated proteins binding to selectively desulphated 2IS heparin
From the text: as §1
The following GAG preparations were analyzed: unfractionated heparins corresponding to the 2nd, 4th and 5th International Standards (denoted here as 2IS, 4IS and 5IS, respectively (Mulloy et al. (2000) Thromb. Haemost. 52, 148-153)); enoxaparin, dalteparin and LMr heparin from Sigma (Cat. No. H3400); selectively desulfated heparins prepared from 2IS heparin as described in Mulloy et al. (1994) Carbohydr. […]
In the case of the biotinylated FHCCP6-8(H384) and FHCCP6-8(Y384) constructs, bound material was detected by adding 200 μl/well of a 1:10,000 dilution of ExtrAvidin alkaline phosphatase (Sigma, Cat. No. E-2636) for 30 minutes. […] For the full-length protein, the level of binding (to 4IS, HSI and HSII) was determined by incubation of the plates for 30 min with MRC OX23 (a monoclonal antibody against factor H (Sim et al. (1983) Biosci. Rep. 3, 1119-1131; 1 μg/well) followed by a 1:1000 dilution of alkaline phosphatase-conjugated goat anti-mouse IgG (Sigma, Cat. No. A-3438) for another 30 minutes. The plates were then developed for 10 min as described above. The absorbance values at 405 nm were determined and corrected against blank wells (i.e., those that contained no GAGs).

Molecule	binding to CRP relative to the other variant (CRP; biotinylated proteins)	DNA-protein complex formation (DNA migration in agarose gel) (Linearized pcDNA3-vector)	binding to heparin oligosaccharides relative to the other variant ([1]; 4- to 18-mers)	effect of removal of 2-O- or N-sulfate on binding ([2]; 2-O-deS or N-deS vs unmodified 2IS)	binding to CRP relative to the other variant (CRP; detection with polyclonal anti-FH antibody, p<0.03)	oligosaccharide length giving maximal binding [1] [sugars]	binding to 6-O-deS and N-deS/re-N-Ac preparations versus parental 2IS [2]	effect of removal of 2-O-, 2,6-O- or N-sulfates on binding ([2]; vs unmodified 2IS)
FHCCP6-8(H384): recombinant protein of Factor H CCPs 6-8, H384 allotype, with N-terminal non-authentic glycine (SEQ ID NO: 1) (protein, listed as Homo sapiens, VARIANT (1)...(188) Protein sequence of the FHCCP6-8 (H384) construct) MGTLKPCDYPDIKHGGLYHENMRRPYFPVAVGKYYSYYCDEHFETPSGSYWDHIHCTQDGWSPAVPCLRKCYFPYLENGYNQNHGRKFVQGKSIDVACHPGYALPKAQTTVTCMENGWSPTPRCIRVKTCSKSSIDIENGFISESQYTYALKEKAKYQCKLGYVTADGETSGSITCGKDGWSAQPTCI	lower CRP binding	retained DNA in its protein-complex form more efficiently	bound better	large reduction	–	–	–	–
FHCCP6-8(Y384): recombinant Factor H CCPs 6-8, Y384 variant obtained by site-directed mutagenesis (SEQ ID NO: 3) (protein, listed as Homo sapiens, VARIANT (1)...(188) FHCCP6-8 (Y384 allotype of mature Factor H)) MGTLKPCDYPDIKHGGLYHENMRRPYFPVAVGKYYSYYCDEHFETPSGSYWDHIHCTQDGWSPAVPCLRKCYFPYLENGYNQNYGRKFVQGKSIDVACHPGYALPKAQTTVTCMENGWSPTPRCIRVKTCSKSSIDIENGFISESQYTYALKEKAKYQCKLGYVTADGETSGSITCGKDGWSAQPTCI	–	migrated mainly in the non-complexed form	–	–	bound significantly better	~12	indistinguishable	small effect
